Like-named read-outs stand apart in the source and are kept apart here.
Legend:
[1] = molecular target: T1, human CD40 on HEK293A/human CD40 cells (human, UniProt P25942 21-277); test: FACS on HEK293A/human CD40 cells
T1 construct: also called HEK-Blue/CD40 cells
Protocol: (§1) The bispecific antibodies as prepared above were tested for their binding capability to cell surface human, monkey and mouse CD40 proteins by FACS, using the HEK293A cells prepared in Example 1 that stably expressed human, monkey or mouse CD40. Briefly, a 96-well plate was seeded with 10⁵ HEK293A cells in 50 μl PBS, and then added with 100 μl serially diluted anti-CD40 antibody 714VH2VL2 and the bispecific antibodies of the disclosure (starting concentration at 40 μg/ml). After incubation at 4° C. for 1 h, the plate was washed by PBST for 3 times. The plate was added with 1:500 diluted APC-goat anti-mouse IgG (Cat #:405308, BioLegen, USA), incubated at 4° for 1 h, washed with PBS for 3 times, and subjected to fluorescence measurement in a FACS machine (BD).

[2] = molecular target: T2, monkey CD40 on HEK293A/monkey CD40 cells (monkey, UniProt P25942 21-277 (human entry)); test: FACS on HEK293A/monkey CD40 cells
T2 chain: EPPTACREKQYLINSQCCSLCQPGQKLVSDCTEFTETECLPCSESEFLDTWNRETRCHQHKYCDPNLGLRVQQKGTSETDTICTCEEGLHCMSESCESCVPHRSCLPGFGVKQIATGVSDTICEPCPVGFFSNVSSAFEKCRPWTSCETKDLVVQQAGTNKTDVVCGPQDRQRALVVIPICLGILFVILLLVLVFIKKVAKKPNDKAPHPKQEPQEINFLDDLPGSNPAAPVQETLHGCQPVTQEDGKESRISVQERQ
Protocol: as §1

[3] = molecular target: T3, mouse CD40 on HEK293A cells (mouse, UniProt P27512 20-289); test: FACS on HEK293A cells expressing mouse CD40
T3 sequence: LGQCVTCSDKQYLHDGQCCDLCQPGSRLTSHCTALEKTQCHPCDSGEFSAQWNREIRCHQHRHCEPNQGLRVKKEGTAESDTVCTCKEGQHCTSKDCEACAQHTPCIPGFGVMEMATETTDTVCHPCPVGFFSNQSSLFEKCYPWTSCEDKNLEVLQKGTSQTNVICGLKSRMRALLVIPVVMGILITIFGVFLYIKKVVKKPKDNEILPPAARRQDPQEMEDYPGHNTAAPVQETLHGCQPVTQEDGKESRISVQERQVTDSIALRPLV
Protocol: as §1

[4] = molecular target: T4, human PD-L1 on HEK293A/human PD-L1 cells (human, UniProt Q9NZQ7 19-290); test: FACS on HEK293A/human PD-L1 cells
Protocol: as §1
(§2) Following the protocol of Example 4, the bispecific antibodies were tested for their binding capability to cell surface human, or monkey PD-L1 proteins by FACS, using the HEK293A cells prepared in Example 1 that stably expressed human or monkey […].

[5] = molecular target: monkey PD-L1 on HEK293A/monkey PD-L1 cells (monkey, UniProt Q9NZQ7 19-290 (human entry)); test: FACS on HEK293A/monkey PD-L1 cells
Protocol: as §1, §2

[6] = molecular target: T4, human PD-L1 on HEK293A/human PD-L1 cells; test: FACS on HEK293A/human PD-L1 cells; remark: listed apart in the source
Protocol: as §1
(§3) Following the protocols in Example 4 and Example 5, the bi- or multi-specific antibodies of the disclosure were tested for their binding capability to human PD-L1 and human CD40 proteins by FACS using the HEK293A cells prepared in Example 1 that stably expressed human PD-L1 or human CD40.

[7] = molecular target: T4, human PD-L1 on HEK293A/human PD-L1 cells; test: FACS blocking assay on HEK293A/human PD-L1 cells; blocked ligand PD-1-Fc
Protocol: (§4) The bispecific antibodies were tested for their blocking activity on PD-1-PD-L1 binding by FACS using the HEK293A cells stably expressing human PD-L1 molecules as prepared in Example 1. Briefly, a 96-well plate was seeded with 10⁵ HEK293A/human PD-L1 cells in 100 μl cell culture medium, and then added with 50 μl serially diluted anti-PD-L1 antibody 56E5VH5VL4 or MBS307-3 molecules. After incubation at 4° C. for 1 h. the plate was washed with PBST for 3 times, added with 100 μl 200 μg/ml PD-1-Fc fusion proteins (Cat #:10377-10211, Sino Biological, CN), incubated at 4° C. for 1 h, washed with PBST for 3 times, and added with 1:500 diluted PE-goat anti-human IgG (Cat #:PAI-86078, Thermofisher, USA). After incubation at 4° C. for 1 h, the plate was washed with PBST for 3 times and measured for fluorescence using a FACS machine (BD).
(§5) Following the protocol of Example 7, the bi- or multi-specific antibodies were tested for their capability to block PD-1-PD-L1 binding by FACS, using the HEK293A cells prepared in Example 1 that stably expressed human PD-L1 molecules.

[8] = molecular target: T4, human PD-L1 on HEK293A/human PD-L1 cells; test: FACS on HEK293A/human PD-L1 cells; remark: listed apart in the source
Protocol: as §1, §3

[9] = molecular target: T4, human PD-L1 on HEK293A/human PD-L1 cells; test: FACS blocking assay on HEK293A/human PD-L1 cells; blocked ligand PD-1-Fc; remark: listed apart in the source
Protocol: as §4, §5

[10] = molecular target: T4, human PD-L1 on HEK293A/human PD-L1 cells; test: FACS on HEK293A/human PD-L1 cells; remark: listed apart in the source
Protocol: as §1, §3

[11] = molecular target: T4, human PD-L1 on HEK293A/human PD-L1 cells; test: FACS blocking assay on HEK293A/human PD-L1 cells; blocked ligand PD-1-Fc; remark: listed apart in the source
Protocol: as §4

monkey PD-L1 on HEK293A/monkey PD-L1 cells, sequence (Q9NZQ7 other isoform, or with tags, fused parts or gaps limits assumed): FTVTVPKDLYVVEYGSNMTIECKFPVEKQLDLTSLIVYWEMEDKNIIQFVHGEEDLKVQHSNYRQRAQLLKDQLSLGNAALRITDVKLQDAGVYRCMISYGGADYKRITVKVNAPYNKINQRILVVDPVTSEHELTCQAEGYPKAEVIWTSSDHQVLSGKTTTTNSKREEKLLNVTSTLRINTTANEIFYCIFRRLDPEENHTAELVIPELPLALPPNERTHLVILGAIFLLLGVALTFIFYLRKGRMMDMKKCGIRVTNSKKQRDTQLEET
T4 sequence (Q9NZQ7 19-290 limits assumed): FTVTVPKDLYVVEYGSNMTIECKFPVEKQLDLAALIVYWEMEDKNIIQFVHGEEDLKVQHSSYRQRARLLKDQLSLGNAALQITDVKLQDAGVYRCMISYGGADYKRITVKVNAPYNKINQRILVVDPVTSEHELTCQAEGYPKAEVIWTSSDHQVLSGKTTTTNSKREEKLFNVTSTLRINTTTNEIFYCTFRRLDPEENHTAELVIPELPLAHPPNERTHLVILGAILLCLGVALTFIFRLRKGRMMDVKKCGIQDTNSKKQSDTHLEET

B1: MBS307-2 (bispecific antibody, human IgG1, kappa, L234A L235A)
heavy: QVQLQESGPGLVKPSQTLSLTCTVSGGSITSDYWNWIRQHPGNKLEYMGYISYTGSTYYNPSLKSRISITRDTSKNQFSLKLSSVTTADTAVYYCARYRDWDVRAMDYWGQGTTVTVSSASTKGPSVFPLAPSSKSTSGGTAALGCLVKDYFPEPVTVSWNSGALTSGVHTFPAVLQSSGLYSLSSVVTVPSSSLGTQTYICNVNHKPSNTKVDKKVEPKSCDKTHTCPPCPAPEAAGGPSVFLFPPKPKDTLMISRTPEVTCVVVDVSHEDPEVKFNWYVDGVEVHNAKTKPREEQYNSTYRVVSVLTVLHQDWLNGKEYKCKVSNKALGAPIEKTISKAKGQPREPQVYTLPPSREEMTKNQVSLTCLVKGFYPSDIAVEWESNGQPENNYKTTPPVLDSDGSFFLYSKLTVDKSRWQQGNVFSCSVMHEALHNHYTQKSLSLSPGSGGGGSGGGGSQVQLQESGPGLVKPSDTLSLTCAVSGYSITTNYYWNWIRQPPGKGLEWMGYIKYDGSNNYNPSLKNRITISVDTSKNQFSLKLSSVTAVDTAVYYCARLDYWGQGTLVTVSSGGGGSGGGGSGGGGSGGGSDVVLTQSPLSLPVTLGQPASISCRSSQSLENSNGNTFLNWFQQRPGQSPRLLIYKVSNRFSGVPDRFSGSGSGTDFTLKISRVEAEDVGVYYCLQVTHVPFTFGQGTKLEIK
light: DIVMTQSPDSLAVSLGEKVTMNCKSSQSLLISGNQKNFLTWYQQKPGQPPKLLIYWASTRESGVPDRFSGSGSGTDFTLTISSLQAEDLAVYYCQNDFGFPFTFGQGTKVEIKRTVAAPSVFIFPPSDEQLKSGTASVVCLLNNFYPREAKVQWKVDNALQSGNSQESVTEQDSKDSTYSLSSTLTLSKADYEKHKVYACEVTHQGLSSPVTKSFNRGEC
notes: Symmetric: full-length anti-PD-L1 antibody (56E5VH5VL4) with an anti-CD40 scFv at the C terminus of each heavy chain
binding result [1]: binds | binding result [2]: binds | binding result [3]: no binding (tested: starting concentration at 40 µg/ml) | EC50 (read off the curve) [4]: ~0.1 µg/mL | EC50 (read off the curve) [5]: ~0.04 µg/mL

B2: MBS307-1 (bispecific antibody, human IgG1, kappa, L234A L235A)
heavy 1: QVQLQESGPGLVKPSDTLSLTCAVSGYSITTNYYWNWIRQPPGKGLEWMGYIKYDGSNNYNPSLKNRITISVDTSKNQFSLKLSSVTAVDTAVYYCARLDYWGQGTLVTVSSASTKGPSVFPLAPSSKSTSGGTAALGCLVKDYFPEPVTVSWNSGALTSGVHTFPAVLQSSGLYSLSSVVTVPSSSLGTQTYICNVNHKPSNTKVDKKVEPKSCDKTHTCPPCPAPEAAGGPSVFLFPPKPKDTLMISRTPEVTCVVVDVSHEDPEVKFNWYVDGVEVHNAKTKPREEQYNSTYRVVSVLTVLHQDWLNGKEYKCKVSNKALPAPIEKTISKAKGQPREPQVYTLPPSREEMTKNQVSLWCLVKGFYPSDIAVEWESNGQPENNYKTTPPVLDSDGSFFLYSKLTVDKSRWQQGNVFSCSVMHEALHNHYTQKSLSLSPGGGGSGGGGSGGGGSGGGGSGIPPHVQKSVNNDMIVTDNNGAVKFPQLCKFCDVRFSTCDNQKSCMSNCSITSICEKPQEVCVAVWRKNDENITLETVCHDPKLPYHDFILEDAASPKCIMKEKKKPGETFFMCSCSSDECNDNIIFSEEYNTSNPD
light 1: DVVLTQSPLSLPVTLGQPASISCRSSQSLENSNGNTFLNWFQQRPGQSPRLLIYKVSNRFSGVPDRFSGSGSGTDFTLKISRVEAEDVGVYYCLQVTHVPFTFGQGTKLEIKRTVAAPSVFIFPPSDEQLKSGTASVVCLLNNFYPREAKVQWKVDNALQSGNSQESVTEQDSKDSTYSLSSTLTLSKADYEKHKVYACEVTHQGLSSPVTKSFNRGEC
heavy 2: QVQLQESGPGLVKPSQTLSLTCTVSGGSITSDYWNWIRQHPGNKLEYMGYISYTGSTYYNPSLKSRISITRDTSKNQFSLKLSSVTTADTAVYYCARYRDWDVRAMDYWGQGTTVTVSSASTKGPSVFPLAPSSKSTSGGTAALGCLVKDYFPEPVTVSWNSGALTSGVHTFPAVLQSSGLYSLSSVVTVPSSSLGTQTYICNVNHKPSNTKVDKKVEPKSCDKTHTCPPCPAPEAAGGPSVFLFPPKPKDTLMISRTPEVTCVVVDVSHEDPEVKFNWYVDGVEVHNAKTKPREEQYNSTYRVVSVLTVLHQDWLNGKEYKCKVSNKALPAPIEKTISKAKGQPREPQVYTLPPSREEMTKNQVSLSCAVKGFYPSDIAVEWESNGQPENNYKTTPPVLDSDGSFFLVSKLTVDKSRWQQGNVFSCSVMHEALHNHYTQKSLSLSPGGGGSGGGGSGGGGSGGGGSGIPPHVQKSVNNDMIVTDNNGAVKFPQLCKFCDVRFSTCDNQKSCMSNCSITSICEKPQEVCVAVWRKNDENITLETVCHDPKLPYHDFILEDAASPKCIMKEKKKPGETFFMCSCSSDECNDNIIFSEEYNTSNPD
light 2: not shown
notes: Both long chains carry linker 1-TGFBII at the C terminus; also called asymmetrical anti-CD40/PD-L1 antibody MBS307-1; MBS307-1-1 + MBS307-1-2
EC50 (read off the curve) [1]: ~0.2 µg/mL | EC50 (read off the curve) [2]: ~0.2 µg/mL | binding result [3]: no binding (tested: starting concentration at 40 µg/ml) | EC50 (read off the curve) [4]: ~0.3 µg/mL | binding result [5]: binds

B3: anti-PD-L1 antibody 56E5VH5VL4 (antibody, V domains shown)
VH: QVQLQESGPGLVKPSQTLSLTCTVSGGSITSDYWNWIRQHPGNKLEYMGYISYTGSTYYNPSLKSRISITRDTSKNQFSLKLSSVTTADTAVYYCARYRDWDVRAMDYWGQGTTVTVSS
VL: DIVMTQSPDSLAVSLGEKVTMNCKSSQSLLISGNQKNFLTWYQQKPGQPPKLLIYWASTRESGVPDRFSGSGSGTDFTLTISSLQAEDLAVYYCQNDFGFPFTFGQGTKVEIK
notes: also called the monospecific anti-PD-L1 antibody; 56E5VH5CL4 [sic]
EC50 (read off the curve) [6]: ~0.05 µg/mL | EC50 (read off the curve) [4]: ~0.07 µg/mL | IC50 (read off the curve) [7]: ~0.02 µg/mL | EC50 (read off the curve) [5]: ~0.04 µg/mL | EC50 (read off the curve) [8]: ~0.04 µg/mL | IC50 (read off the curve) [9]: ~0.06 µg/mL | EC50 (read off the curve) [10]: ~0.04 µg/mL | IC50 (read off the curve) [11]: ~0.06 µg/mL

Reference: patent publication US20240084027A1 (BEIJING MABWORKS, published 2024)
